Assay results published in patent US20230129812A1, “COMPOSITIONS AND METHODS FOR TREATING PULMONARY HYPERTENSION” (Acceleron Pharma Inc., priority 2020, published 2023).

Key:
GDF8, O14793 [1] = experiment: SPR (Biacore); receptor-Fc captured by anti-Fc antibody, ligand injected; conditions: remark: other sources report otherwise
GDF8, O14793 [2] = experiment: SPR (Biacore); receptor-Fc captured by anti-Fc antibody, ligand injected; † Very low signal; conditions: remark: other sources report otherwise

Chain of GDF8, O14793 (O14793 267-375 limits assumed): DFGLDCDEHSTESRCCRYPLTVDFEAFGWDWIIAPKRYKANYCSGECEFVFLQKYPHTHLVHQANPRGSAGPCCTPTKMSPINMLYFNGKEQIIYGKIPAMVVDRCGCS

koff (GDF8, O14793 [1]): 0.0019 s⁻¹
kon (GDF8, O14793 [1]): 130000 M⁻¹ s⁻¹
Kd (GDF8, O14793 [2]): 15 nM
B1: ALK4-Fc homodimer, P36896 24-126 (Fc fusion, not shown: a dimerising Fc or GST)
chain: SGPRGVQALLCACTSCLQANYTCETDGACMVSIFNLDGMEHHVRTCIPKVELVPAGKPFYCLSSEDLRNTHCCYTDYCNRIDLRVPSGHLKEPEHPSMWGPVE
